Laboratory results as given in patent US20080181887A1 (published 2008).
Positions count from the first letter of the chain named. In names and notes the source's numbering stands.

What was measured:
human FcRn [1] = target: T1, human FcRn (human); test: BIAcore SPR, equilibrium binding with Scatchard analysis, soluble human FcRn over immobilized IgG1, pH 6.0
T1 construct: mature; Soluble heterodimer from baculovirus-infected High-Five cells, purified on IgG Sepharose; also called recombinant human FcRn; the human receptor
T1 sequence (chain, as listed by the source limits assumed, chain 1 of 2): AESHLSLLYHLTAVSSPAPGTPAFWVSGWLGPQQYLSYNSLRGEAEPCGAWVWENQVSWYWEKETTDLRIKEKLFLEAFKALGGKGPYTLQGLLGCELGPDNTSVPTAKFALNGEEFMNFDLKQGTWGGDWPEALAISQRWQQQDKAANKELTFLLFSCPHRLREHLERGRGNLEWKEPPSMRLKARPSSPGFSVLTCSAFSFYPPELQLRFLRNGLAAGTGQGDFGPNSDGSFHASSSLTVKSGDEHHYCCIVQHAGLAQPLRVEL
T1 sequence (P61769 21-119 limits assumed, chain 2 of 2): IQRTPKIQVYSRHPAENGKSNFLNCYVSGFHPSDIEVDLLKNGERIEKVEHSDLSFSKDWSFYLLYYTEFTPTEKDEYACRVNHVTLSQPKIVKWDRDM
Protocol: (§1) The interaction of soluble murine and human FcRn with immobilized human IgG1 variants was monitored by surface plasmon resonance detection using a BIAcore 3000 instrument (Pharmacia Biosensor, Uppsala, Sweden). […] Protein concentrations were calculated by the bicinchoninic acid (BCA) method for both human and murine FcRn or using the 1% extinction coefficient at 280 m of 1.5 for IgG1 wild type and variants. The latter were coupled to the dextran matrix of a CM5 sensor chip (Pharmacia Biosensor) using an Amine Coupling Kit as described (Johnson et al., supra). The protein concentrations ranged from 3-5 μg/ml in 10 mM sodium acetate, pH 5.0. The activation period was set for 7 minutes at a flow rate of 10 μl/min and the immobilization period was set to between 10 and 20 minutes at a flow rate of 10 μl/min. Excess reactive esters were quenched by injection of 70 μl of 1.0 methanolamine hydrochloride, pH 8.5. […] Human and murine FcRn were buffer exchanged against 50 mM PBS buffer pH 6.0 containing 0.05% Tween 20. Dilutions were made in the same buffer. All binding experiments were performed at 25 C. with concentrations ranging from 120 to 1 μg/ml at a flow rate of 5 to 10 μl/min; data were collected for 25 to 50 minutes and three 1-minute pulses of PBS buffer pH 7.2 were used to regenerate the surfaces. FcRn was also flowed over an uncoated cell and the sensorgrams from these blank runs subtracted from those obtained with IgG1-coupled chips. Runs were analyzed using the software BIAevaluation 3.1 (Pharmacia). Association constants (KAS) were determined from Scatchard analysis by measuring the concentration of free reactants and complex at equilibrium after correction for nonspecific binding.

murine FcRn [2] = target: T2, murine FcRn (murine, UniProt P01887 21-119, limits assumed); test: BIAcore SPR, equilibrium binding with Scatchard analysis, soluble murine FcRn over immobilized IgG1, pH 6.0
T2 construct: the whole entry is named; also called mouse FcRn; muFcRn
T2 sequence: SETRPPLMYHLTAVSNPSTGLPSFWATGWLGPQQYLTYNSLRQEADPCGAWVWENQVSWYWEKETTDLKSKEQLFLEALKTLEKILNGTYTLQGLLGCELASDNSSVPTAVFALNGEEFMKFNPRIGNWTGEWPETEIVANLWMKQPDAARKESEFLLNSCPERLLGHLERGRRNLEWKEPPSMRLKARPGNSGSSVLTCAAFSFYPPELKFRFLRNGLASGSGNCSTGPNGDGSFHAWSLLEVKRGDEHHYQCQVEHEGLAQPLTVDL
T2 sequence (b2m): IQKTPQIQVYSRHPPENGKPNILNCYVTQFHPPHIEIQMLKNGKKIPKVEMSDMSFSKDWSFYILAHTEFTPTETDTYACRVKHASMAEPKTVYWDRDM
Protocol: as §1

murine FcRn [3] = target: T2, murine FcRn; test: BIAcore SPR, Scatchard analysis of FIG. 7A, murine FcRn 1 nM to 556 nM over 4000 RU of immobilized IgG1
Protocol: Runs were analyzed using the software BIAevaluation 3.1 (Pharmacia). Association constants (KAS) were determined from Scatchard analysis by measuring the concentration of free reactants and complex at equilibrium after correction for nonspecific binding. […] The concentration of free analyte (human or murine FcRn) is equal to the bulk analyte concentration since analyte is constantly replenished during sample injection. The concentration of free ligand on the surface of the sensor chip can be derived from the concentration of the complex and from the total binding capacity of the surface as KA=Req/C(Rmax-Req) where C is the free analyte concentration, Req is the steady-state response, and Rmax is the total surface binding capacity. Rearranging, the equation reads: Req/C=KA Rmax-KA Req.
In all cases, equilibrium (or near-equilibrium) binding levels were reached within 50 minutes. To estimate the increase in RU resulting from the non specific effect of protein on the bulk refractive index, binding of FcRn to an uncoated cell was measured and the sensorgrams from these blank runs subtracted from those obtained with IgG1-coupled chips.

murine FcRn [4] = target: T2, murine FcRn; test: BIAcore SPR, soluble murine FcRn over immobilized IgG1, pH 6.0
Protocol: (§2) The interaction of soluble murine and human FcRn with immobilized human IgG1 variants was monitored by surface plasmon resonance detection using a BIAcore 3000 instrument (Pharmacia Biosensor, Uppsala, Sweden). […] Protein concentrations were calculated by the bicinchoninic acid (BCA) method for both human and murine FcRn or using the 1% extinction coefficient at 280 m of 1.5 for IgG1 wild type and variants. The latter were coupled to the dextran matrix of a CM5 sensor chip (Pharmacia Biosensor) using an Amine Coupling Kit as described (Johnson et al., supra). The protein concentrations ranged from 3-5 μg/ml in 10 mM sodium acetate, pH 5.0. The activation period was set for 7 minutes at a flow rate of 10 μl/min and the immobilization period was set to between 10 and 20 minutes at a flow rate of 10 μl/min. Excess reactive esters were quenched by injection of 70 μl of 1.0 methanolamine hydrochloride, pH 8.5. […] Human and murine FcRn were buffer exchanged against 50 mM PBS buffer pH 6.0 containing 0.05% Tween 20. Dilutions were made in the same buffer. […] Runs were analyzed using the software BIAevaluation 3.1 (Pharmacia). Association constants (KAS) were determined from Scatchard analysis by measuring the concentration of free reactants and complex at equilibrium after correction for nonspecific binding.

human FcRn [5] = target: T1, human FcRn; test: BIAcore SPR, soluble human FcRn over immobilized IgG1, pH 6.0
Protocol: as §2

B1: human IgG1 MEDI-493 (SYNAGIS) G385R/Q386T/P387R/N389P (antibody)
heavy (part 1 of 2): QVTLRESGPALVKPTQTLTLTCTFSGFSLSTSGMSVGWIRQPPGKALEWLADIWWDDKKDYNPSLKSRLTISKDTSKNQVVLKVTNMDPADTATYYCARSMITNWYFDVWGAGTTVTVSS
heavy (part 2 of 2): EPKSCDKTHTCPPCPAPELLGGPSVFLFPPKPKDTLMISRTPEVTCVVVDVSHEDPEVKFNWYVDGVEVHNAKTKPREEQYNSTYRVVSVLTVLHQDWLNGKEYKCKVSNKALPAPIEKTISKAKGQPREPQVYTLPPSREEMTKNQVSLTCLVKGFYPSDIAVEWESNRTREPNYKTTPPVLDSDGSFFLYSKLTVDKSRWQQGNVFSCSVMHEALHNHYTQKSLSLSPGK
light: DIQMTQSPSTLSASVGDRVTITCKCQLSVGYMHWYQQKPGKAPKLLIYDTSKLASGVPSRFSGSGSGTEFTLTISSLQPDDFATYYCFQGSGYPFTFGGGTKLEIK
notes: HEK 293, protein A purified; not shown: human IgG1 heavy chain CH1 domain (between VH and hinge-Fc); human kappa light chain constant domain
ΔΔG (ΔG wild type - ΔG mutant) (human FcRn [1]): 0.3 kcal/mol

B2: human IgG1 MEDI-493 (SYNAGIS) M252Y/S254T/T256E (antibody)
heavy (part 1 of 2): B1 heavy (part 1 of 2)
heavy (part 2 of 2): B1 heavy (part 2 of 2) with M37Y, S39T, T41E, R170G, T171Q, R172P, P174N
light: B1 light
notes: HEK 293, protein A purified; also called IgG1/M252Y/S254T/T256E; not shown: human IgG1 heavy chain CH1 domain (between VH and hinge-Fc); human kappa light chain constant domain
Kd (murine FcRn [2]): 27 nM
ΔΔG (ΔG wild type - ΔG mutant) (murine FcRn [2]): 1.4 kcal/mol
Kd (murine FcRn [3]): 24 nM
ΔΔG (ΔG wild type - ΔG mutant) (human FcRn [1]): 1.4 kcal/mol

B3: human IgG1 MEDI-493 (SYNAGIS) M252W (antibody)
heavy (part 1 of 2): B1 heavy (part 1 of 2)
heavy (part 2 of 2): not shown
light: B1 light
notes: as for B1
Kd (murine FcRn [2]): 30 nM
ΔΔG (ΔG wild type - ΔG mutant) (murine FcRn [2]): 1.3 kcal/mol
ΔΔG (ΔG wild type - ΔG mutant) (human FcRn [1]): 1.1 kcal/mol

B4: human IgG1 MEDI-493 (SYNAGIS) H433K/N434F/Y436H (antibody)
heavy (part 1 of 2): B1 heavy (part 1 of 2)
heavy (part 2 of 2): B1 heavy (part 2 of 2) with R170G, T171Q, R172P, P174N, H218K, N219F, Y221H
light: B1 light
notes: as for B1
Kd (murine FcRn [2]): 14 nM
ΔΔG (ΔG wild type - ΔG mutant) (murine FcRn [2]): 1.8 kcal/mol
ΔΔG (ΔG wild type - ΔG mutant) (human FcRn [1]): 1.1 kcal/mol

B5: human IgG1 MEDI-493 (SYNAGIS) M252Y/T256Q (antibody)
heavy (part 1 of 2): B1 heavy (part 1 of 2)
heavy (part 2 of 2): not shown
light: B1 light
notes: as for B1
ΔΔG (ΔG wild type - ΔG mutant) (human FcRn [1]): 0.9 kcal/mol

B6: human IgG1 MEDI-493 (SYNAGIS) I253A (antibody)
heavy (part 1 of 2): B1 heavy (part 1 of 2)
heavy (part 2 of 2): not shown
light: B1 light
notes: HEK 293, protein A purified; also called 1253A; not shown: human IgG1 heavy chain CH1 domain (between VH and hinge-Fc); human kappa light chain constant domain
binding result (murine FcRn [4]): no binding (tested: FcRn 1 to 120 µg/ml)
binding result (human FcRn [5]): no binding (tested: FcRn 1 to 120 µg/ml)

B7: human IgG1 MEDI-493 (SYNAGIS) N434F/Y436H (antibody)
heavy (part 1 of 2): B1 heavy (part 1 of 2)
heavy (part 2 of 2): not shown
light: B1 light
notes: as for B1
Kd (murine FcRn [2]): 9 nM
ΔΔG (ΔG wild type - ΔG mutant) (murine FcRn [2]): 2 kcal/mol
ΔΔG (ΔG wild type - ΔG mutant) (human FcRn [1]): 1 kcal/mol
